The assay has as its target Flt1/VEGFR1 (human) (UniProt P17948). In words: cell-based or functional assay.

HUVEC buds containing multiple filopodia data for one substance are collected here from patent US7662919.

UniProt P17948, sequence (P17948 27-1338): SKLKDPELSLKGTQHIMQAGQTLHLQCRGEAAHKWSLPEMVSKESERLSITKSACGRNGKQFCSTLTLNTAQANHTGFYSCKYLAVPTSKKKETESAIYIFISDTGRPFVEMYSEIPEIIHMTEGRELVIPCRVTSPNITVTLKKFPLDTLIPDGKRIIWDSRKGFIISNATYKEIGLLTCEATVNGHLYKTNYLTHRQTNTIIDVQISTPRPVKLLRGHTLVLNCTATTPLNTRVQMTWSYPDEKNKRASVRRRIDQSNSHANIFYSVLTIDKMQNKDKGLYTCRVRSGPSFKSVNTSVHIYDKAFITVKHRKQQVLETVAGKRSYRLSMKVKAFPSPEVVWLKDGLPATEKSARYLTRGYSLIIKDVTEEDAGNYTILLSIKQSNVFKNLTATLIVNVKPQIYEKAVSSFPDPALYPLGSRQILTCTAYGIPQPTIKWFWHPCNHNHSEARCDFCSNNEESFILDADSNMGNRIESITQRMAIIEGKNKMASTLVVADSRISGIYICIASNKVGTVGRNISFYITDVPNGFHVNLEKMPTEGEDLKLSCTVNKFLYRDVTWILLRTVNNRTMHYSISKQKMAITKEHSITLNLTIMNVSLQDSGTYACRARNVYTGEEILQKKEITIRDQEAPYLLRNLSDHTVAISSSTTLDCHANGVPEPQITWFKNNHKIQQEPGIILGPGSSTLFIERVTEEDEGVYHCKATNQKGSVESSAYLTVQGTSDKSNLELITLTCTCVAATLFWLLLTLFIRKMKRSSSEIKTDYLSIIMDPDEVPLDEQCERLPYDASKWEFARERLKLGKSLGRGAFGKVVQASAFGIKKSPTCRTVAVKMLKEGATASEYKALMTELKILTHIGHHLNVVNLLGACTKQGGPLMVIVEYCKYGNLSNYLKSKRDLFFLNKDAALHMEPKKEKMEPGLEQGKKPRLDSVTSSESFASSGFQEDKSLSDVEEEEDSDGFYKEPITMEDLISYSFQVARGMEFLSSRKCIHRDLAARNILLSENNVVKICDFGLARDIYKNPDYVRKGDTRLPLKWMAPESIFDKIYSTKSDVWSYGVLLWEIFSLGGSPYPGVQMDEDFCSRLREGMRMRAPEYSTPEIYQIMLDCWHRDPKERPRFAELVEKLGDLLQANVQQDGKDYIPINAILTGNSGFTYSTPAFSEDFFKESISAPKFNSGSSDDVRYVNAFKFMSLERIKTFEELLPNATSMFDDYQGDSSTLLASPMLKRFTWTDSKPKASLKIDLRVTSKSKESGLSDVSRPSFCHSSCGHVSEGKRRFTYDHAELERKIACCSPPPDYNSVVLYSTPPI

Turning to PlGF (ligand), the HUVEC buds containing multiple filopodia is 250%.
